Values of other authors in paper PMC5487894.
Read-outs that look alike come from different tables or passages of the source.

Assays:
Rab5 (Homo sapiens) = Rab5 (Homo sapiens) (UniProt P20339)
[1] = molecular target: CDC12 20-40 (Schizosaccharomyces pombe) (UniProt Q10059)
Rac (Homo sapiens) [2] = molecular target: Rac (Homo sapiens) (UniProt P63000)
Rac (Homo sapiens) [3] = molecular target: Rac (Homo sapiens) (UniProt P63000); remark: listed apart in the source

UniProt P20339, sequence (P20339 whole entry): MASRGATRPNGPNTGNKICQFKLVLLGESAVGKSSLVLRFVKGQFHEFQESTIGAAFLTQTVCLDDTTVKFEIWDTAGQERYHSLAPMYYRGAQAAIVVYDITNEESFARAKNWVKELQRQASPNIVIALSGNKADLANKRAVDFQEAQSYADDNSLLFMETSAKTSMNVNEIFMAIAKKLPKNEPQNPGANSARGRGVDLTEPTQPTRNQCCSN
UniProt Q10059, sequence (Q10059 20-40): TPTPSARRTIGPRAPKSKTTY

Question: Which Kd (Rab5 (Homo sapiens)) does the source give for APPL1 BAR-PH (from UniProt Q9UKG1) here?
Answer: Its Kd is 900 nM.

Question: Which Kd [1] does the source give for CDC15 F-BAR (from UniProt Q09822) here?
Answer: The Kd was 2 nM.

Question: For IRSp53 RCB domain (from UniProt Q9UQB8), which Kd (Rac (Homo sapiens) [2]) is on record?
Answer: The Kd was 20000 nM.

Question: And the Kd (Rac (Homo sapiens) [3])?
Answer: Its Kd is 3000 nM.
